Measurements from US7807788 (GlaxoSmithKline, dated 2010).
Values joined by “and” are separate entries in the source; they are usually repeats but may differ in a detail not shown here. Identical values can stand only once.

Assays:
[1] = biological target: T1, recombinant E.coli-expressed human IL-4 (human, UniProt P05112 25-153); assay: sandwich ELISA: human IL-4 captured by goat anti-human IL-4 polyclonal, titrated antibody (positive control)
T1 sequence (looked up): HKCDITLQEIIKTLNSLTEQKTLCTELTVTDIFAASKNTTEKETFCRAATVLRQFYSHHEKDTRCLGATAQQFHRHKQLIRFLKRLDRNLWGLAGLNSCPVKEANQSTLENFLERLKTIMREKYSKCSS

[2] = biological target: T2, recombinant E.coli-expressed cynomolgus IL-13 (cynomolgus, UniProt Q5I6E4 21-132 (Macaca thibetana entry)); assay: cell-based or functional assay
T2 chain: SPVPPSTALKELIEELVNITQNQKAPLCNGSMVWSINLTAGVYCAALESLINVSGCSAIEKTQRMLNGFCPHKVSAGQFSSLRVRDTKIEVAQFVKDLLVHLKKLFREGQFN

[3] = biological target: T3, recombinant E.coli-expressed human IL-13 (human, UniProt P35225 35-146); assay: sandwich ELISA: E.coli-expressed human IL-13 captured by goat anti-human IL-13 polyclonal, titrated 6A1, anti-mouse IgG-HRP
T3 construct: Untagged E.coli material, bought (Cambridge Bioscience) or made in-house (CA); also called hIL-13; human IL13 (CA)

[4] = biological target: T4, alanine-scan peptide 1 (parental sequence, no substitution) (human, N-terminal biotin); assay: peptide ELISA: immobilised biotinylated peptide, titrated parental 6A1 (mAb named in legend paragraph 137, not on the sheet)
T4 construct: also called parental peptide
T4 peptide: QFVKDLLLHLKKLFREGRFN

[5] = biological target: T5, alanine-scan peptide 66 (human, N-terminal biotin); assay: as above
T5 construct: also called F106A peptide
T5 peptide: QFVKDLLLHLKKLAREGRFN

[6] = biological target: T6, alanine-scan peptide 65 (human, N-terminal biotin); assay: as above
T6 construct: also called L105A peptide
T6 peptide: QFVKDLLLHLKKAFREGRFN

[7] = biological target: T7, alanine-scan peptide 63 (human, N-terminal biotin); assay: as above
T7 construct: also called K103A peptide
T7 peptide: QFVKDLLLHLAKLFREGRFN

[8] = biological target: T3, recombinant E.coli-expressed human IL-13; assay: cell-based or functional assay

B1: anti-human IL4 mAb (antibody, V domains shown)
VH: QVQLQQSGPELVKPGASVKISCKASGYSFTSYWIHWIKQRPGQGLEWIGMIDPSDGETRLNQRFQGRATLTVDESTSTAYMQLRSPTSEDSAVYYCTRLKEYGNYDSFYFDVWGAGTLVTVSS
VL: DIQMTQSPASLSVSVGDTITLTCHASQNIDVWLSWFQQKPGNIPKLLIYKASNLHTGVPSRFSGSGSGTGFTLTISSLQPEDIATYYCQQAHSYPFTFGGGTKLEIKR
[1]
  EC50 (read off the curve): ~0.03 µg/mL

B2: mouse monoclonal antibody 6A1 (antibody, mouse IgG1, V domains shown)
VH: EIQLQQSVAELVRPGASVRLSCTASGFYIKDTYMHWVIQRPEQGLEWIGTIDPANGNTKYVPKFQGKATITADTSSNTAYLRLSSLTSEDTAIYYCARSIYDDYHYDDYYAMDYWGQGTSVTVSS
VL: DVLMTQTPLSLPVSLGDQASISCRSSQNIVHINGNTYLEWYLQKPGQSPKLLIYKISDRFSGVPDRFSGSGSGTDFTLKISRVEAEDLGVYYCFQGSHVPWTFGGGTKLEIK
notes: Murine IgG1/kappa from hybridoma; also called mAb 6A1; 6A1 parental mAb
[2]
  Mean ND50 for 2 assays, TF-1 bioassay: 0.078 µg/mL
[3]
  EC50 (read off the curve): ~0.03 µg/mL
[4]
  EC50 (read off the curve): ~0.02 µg/mL and ~0.03 µg/mL
[5]
  EC50 (read off the curve): ~0.03 µg/mL
[6]
  EC50 (read off the curve): ~0.03 µg/mL
[7]
  EC50 (read off the curve): ~0.02 µg/mL

B3: chimaeric 6A1 monoclonal antibody (antibody, human IgG1, V domains shown)
VH: EIQLQQSVAELVRPGASVRLSCTASGFYIKDTYMHWVIQRPEQGLEWIGTIDPANGNTKYVPKFQGKATITADTSSNTAYLRLSSLTSEDTAIYYCARSIYDDYHYDDYYAMDYWGQGTSVTVSS
VL: DVLMTQTPLSLPVSLGDQASISCRSSQNIVHINGNTYLEWYLQKPGQSPKLLIYKISDRFSGVPDRFSGSGSGTDFTLKISRVEAEDLGVYYCFQGSHVPWTFGGGTKLEIK
[8]
  Mean ND50 for 2 assays, TF-1 bioassay: 0.119 µg/mL
